Results: patent US20210338733A1 (University of Pennsylvania, published 2021)

Target: T1, TnMUC1 (aberrantly glycosylated Tn glycoform of MUC1) as expressed by tumor cells (human, UniProt P15941 24-1255, Tn (GalNAca1-O-Ser/Thr) glycans; sites not stated)
T1 construct: whole, on cells; One molecule is used for all TnMUC1-positive target cells; In the IHC of breast tumor tissue the staining was cytoplasmic and/or membranous; also called TnMUC1 antigen; TnMUC1+ target cells (Jurkat E6-1, Hs766T, MCF7, breast cancer cell lines and tissue)
Assay: immunohistochemistry on breast cancer tissue

T1 sequence (P15941 24-1255): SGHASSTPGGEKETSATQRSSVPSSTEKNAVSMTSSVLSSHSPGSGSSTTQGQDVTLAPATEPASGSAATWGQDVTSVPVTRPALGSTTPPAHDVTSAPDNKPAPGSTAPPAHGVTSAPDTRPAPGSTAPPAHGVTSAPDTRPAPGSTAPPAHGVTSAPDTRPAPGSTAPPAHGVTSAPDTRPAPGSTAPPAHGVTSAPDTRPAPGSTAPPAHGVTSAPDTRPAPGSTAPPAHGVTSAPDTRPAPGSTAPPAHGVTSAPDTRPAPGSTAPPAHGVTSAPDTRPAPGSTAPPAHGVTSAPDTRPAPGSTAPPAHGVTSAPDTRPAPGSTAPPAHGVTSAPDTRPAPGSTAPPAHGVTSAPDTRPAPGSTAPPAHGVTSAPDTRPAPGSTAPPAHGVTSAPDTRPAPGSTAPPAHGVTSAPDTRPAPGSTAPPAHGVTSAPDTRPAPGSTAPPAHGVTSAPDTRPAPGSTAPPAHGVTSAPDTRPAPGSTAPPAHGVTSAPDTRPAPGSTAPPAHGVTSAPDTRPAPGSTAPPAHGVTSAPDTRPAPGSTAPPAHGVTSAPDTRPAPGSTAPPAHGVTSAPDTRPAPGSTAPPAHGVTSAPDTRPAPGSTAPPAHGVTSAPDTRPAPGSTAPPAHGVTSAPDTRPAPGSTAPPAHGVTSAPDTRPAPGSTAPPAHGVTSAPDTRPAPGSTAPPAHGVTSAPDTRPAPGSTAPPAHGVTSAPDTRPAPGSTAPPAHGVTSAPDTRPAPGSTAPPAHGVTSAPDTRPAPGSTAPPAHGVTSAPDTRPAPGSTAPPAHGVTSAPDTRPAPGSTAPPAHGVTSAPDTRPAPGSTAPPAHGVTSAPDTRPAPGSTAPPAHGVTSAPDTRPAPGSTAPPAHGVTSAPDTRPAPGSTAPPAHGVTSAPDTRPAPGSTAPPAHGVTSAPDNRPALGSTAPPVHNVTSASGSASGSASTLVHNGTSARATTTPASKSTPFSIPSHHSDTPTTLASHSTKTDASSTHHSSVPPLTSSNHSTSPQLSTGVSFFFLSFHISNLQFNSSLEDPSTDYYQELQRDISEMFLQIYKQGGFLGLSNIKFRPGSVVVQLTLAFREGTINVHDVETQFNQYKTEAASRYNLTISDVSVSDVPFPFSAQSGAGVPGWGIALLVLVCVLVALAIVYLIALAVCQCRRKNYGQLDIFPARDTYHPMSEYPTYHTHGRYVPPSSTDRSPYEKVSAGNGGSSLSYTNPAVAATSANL

B1: Anti-TnMUC1 murine monoclonal antibody clone 5E5 (antibody, V domains shown)
VH: QVQLQQSDAELVKPGSSVKISCKASGYTFTDHAIHWVKQKPEQGLEWIGHFSPGNTDIKYNDKFKGKATLTVDRSSSTAYMQLNSLTSEDSAVYFCKTSTFFFDYWGQGTTLTVSS
VL: ELVMTQSPSSLTVTAGEKVTMICKSSQSLLNSGDQKNYLTWYQQKPGQPPKLLIFWASTRESGVPDRFTGSGSGTDFTLTISSVQAEDLAVYYCQNDYSYPLTFGAGTKLELK
notes: also called 5E5 mAb; mAb 5E5
B1: binds.
